Drawing on paper PMC4357730, this text covers binding signal for three substances.

One series concerns hTDG-N140A (human). Briefly: AFM. As to conditions: AFM: 25 mM HEPES pH 7.5, 25 mM Na acetate, 10 mM Mg acetate, RT, 2-AP hTDG: 20 mM HEPES pH 7.0, 0.2 mM EDTA, 2.5 mM MgCl2, 100 mM NaCl, 25 C, 2-AP hOGG1: 50 mM …, scale: specificity S.
For the next series, the target named is hTDG-R275A R275A (human) (UniProt Q13569). Briefly: AFM. As to conditions: dUF at insert position 9 opposite G (non-cleavable G:U analog); AFM: 25 mM HEPES pH 7.5, 25 mM Na acetate, 10 mM Mg acetate, RT; 2-AP hTDG: 20 mM HEPES pH 7.0, 0.2 mM EDTA, 2.5 mM MgCl2, 100 mM NaCl, 25 C; 2-AP hOGG1: 50 mM …; scale: specificity S.
Chain of hTDG-R275A R275A (human) (Q13569 whole entry R275A): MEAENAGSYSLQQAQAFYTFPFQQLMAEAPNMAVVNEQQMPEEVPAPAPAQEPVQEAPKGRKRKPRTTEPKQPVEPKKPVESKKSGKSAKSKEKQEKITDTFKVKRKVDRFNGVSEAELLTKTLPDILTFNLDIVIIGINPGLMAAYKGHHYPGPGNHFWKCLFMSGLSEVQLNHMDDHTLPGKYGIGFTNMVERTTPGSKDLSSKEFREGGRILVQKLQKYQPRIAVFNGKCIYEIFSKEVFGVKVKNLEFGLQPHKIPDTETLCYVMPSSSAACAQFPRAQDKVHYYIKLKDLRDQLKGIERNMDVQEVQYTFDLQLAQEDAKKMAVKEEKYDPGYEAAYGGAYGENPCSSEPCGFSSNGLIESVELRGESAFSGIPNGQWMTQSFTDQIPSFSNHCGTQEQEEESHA

As to 549 bp G:T DNA, the binding signal with hTDG-N140A (human) came to 305. 549 bp G:U DNA showed a binding signal with hTDG-N140A (human) (dU at insert position 9 opposite G) of 163.

For 549 bp G:UF DNA, in the series with hTDG-R275A R275A (human), the binding signal was 358.
